Measured values taken from US20090005257A1 (published 2009).

What was measured:
hen egg lysozyme = biological target: T1, hen egg lysozyme (hen, UniProt P00698 19-147); assay: phage ELISA on immobilised HEL
T1 construct: also called HEL; hen egg white lysozyme
Description: Phage ELISA assays. The ELISA wells were coated overnight at 4° C. with one of the following ligands: 10 μg/ml of protein A in PBS, 10 μg/ml of mAb 9E10 in PBS, or 3 mg/ml of HEL in 0.1 M NaHCO₃ buffer, pH 9.6. After blocking the wells with PBS containing 2% Tween-20 (PBST), a dilution series of phage in PBST was incubated for 2 h. After washing with PBS, bound phage were detected as follows. In assays for binding to REL, phage was detected directly using a conjugate of horseradish peroxidase with an anti-M13 monoclonal antibody (Amersham) using 3,3′,5,5′-tetramethylbenzidine as substrate.

protein A [1] = biological target: T2, protein A (UniProt P38507 37-477); assay: phage ELISA on protein A, heated 80 C against unheated, three data points
T2 construct: also called pA
Description: (§1) After biotinylation of the phage, for each clone, a 100 μl sample of phage was transferred to a thin-wall PCR tube (and the remaining biotinylated phage was kept on ice). The tube was placed in a PCR apparatus for incubation at 80° C. during 10 min (temperature of cover lid: 85° C.). After heating, the tube was rapidly cooled down to 4° C. in the PCR apparatus.
(§2) ELISA plates were coated and blocked as described in Section 4. The samples were transferred to the empty wells of coated/blocked ELISA plates, and incubated for 2 hours at room temperature. Unbound phage was then removed by washing the wells 6-ties with PBS. For detection, Str-HRP (from a 1 mg/ml stock in PBS) were diluted 1/2000 in PBS supplemented with 2% v/v TWEEN 20 (Polyoxyethylensorbitan monolaurate; for protein A-based ELISA) or 2% w/v BSA (for protein L-based ELISA), and 100 μl of the resulting solution was added to each ELISA well. After incubation for 1 hour at room temperature, the unbound conjugate was removed by washing the wells 6-times with PBS. For colorimetric reaction, a 10 mg/ml solution of TMB (tetramethylbenzidine) was diluted 100-fold in a buffer of 0.1 M sodium acetate, pH 6.0. Next, hydrogen peroxyde was added (0.4 ul per ml of buffer/TMB, and 100 ul of this solution was added to each ELISA well. After color (blue) developed, the reaction was stopped by adding 50 μl of 1 M sulfuric acid per well (color turns to yellow). The optical density was recorded at 450 nm.
These clones were characterized for refoldability on phage (according to the protocol of Section 5, but with three data points being taken) and in solution.

protein A [2] = biological target: T2, protein A; assay: phage ELISA on protein A, heated 80 C against unheated, titration (Section 5)
Description: as §1, §2

protein A [3] = biological target: T2, protein A; assay: phage ELISA on protein A, multivalent phage 5x10^11 TU/ml, 80 C 10 min against untreated
Description: The ELISA wells were coated overnight at 4° C. with one of the following ligands: 10 μg/ml of protein A in PBS, 10 μg/ml of mAb 9E10 in PBS, or 3 mg/ml of HEL in 0.1 M NaHCO₃ buffer, pH 9.6. After blocking the wells with PBS containing 2% Tween-20 (PBST), a dilution series of phage in PBST was incubated for 2 h. After washing with PBS, bound phage were detected as follows. […] In assays for binding to protein A, the phage (4×10¹⁰ TU/ml in PBS) was first biotinylated at 4° C. with biotin-NHS (Perbio) (50 μM final concentration) and detected by sequential addition of streptavidin-horseradish peroxidase conjugate (1 μg/ml) (Sigma-Aldrich) in PBST, and substrate as above.

T1 sequence (P00698 19-147): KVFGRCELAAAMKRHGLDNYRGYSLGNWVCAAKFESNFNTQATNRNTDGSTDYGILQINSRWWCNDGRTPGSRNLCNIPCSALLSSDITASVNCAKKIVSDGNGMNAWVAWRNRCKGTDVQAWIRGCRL

B1: HEL4 (other)
VH: EVQLLESGGGLVQPGGSLRLSCAASGFRISDEDMGWVRQAPGKGLEWVSSIYGPSGSTYYADSVKGRFTISRDNSKNTLYLQMNSLRAEDTAVYYCASALEPLSEPLGFWGQGTLVTVSS
notes: Human VH dAb against hen egg lysozyme; also called dAb HEL4; Fd-myc-HEL4
With B1 the binding result (hen egg lysozyme) was “binds”, the “Refoldability on phage (protein A binding retained after heating)” value (protein A [1]) was 82% and the “% refolding (protein A binding retained after heating)” value (protein A [2]) was 18.5%. For the same binder, the “fold reduction of binding after heating” value (protein A [3]) was 3 fold.
